Measured values from EP1618130B1.

Biological target: HLA-A2 (human)

HLA-A2 high affinity positive control epitope from HIV-1 pol476-484 ([…]) (peptide)
C50: 0.2 µM
